Each block holds one substance with its values, some of them ahead of it.
Tests used:
[1] = target: Anaphase Promoting Complex/Cyclosome (APC/C), endogenous, with APC8-mScarlet (human (endogenous in RPE-1)) (UniProt Q9UJX2); assay: fluorescence cross-correlation spectroscopy (FCCS); in living RPE-1 Cyclin B1-mEmerald+/+; APC8-mScarlet+/+ cells (metaphase by p-0009), measured at the chromosomes; apparent
[2] = target: Anaphase Promoting Complex/Cyclosome (APC/C), endogenous, with APC8-mScarlet (human (endogenous in RPE-1)) (UniProt Q9UJX2); assay: fluorescence cross-correlation spectroscopy (FCCS); in living RPE-1 Cyclin B1-mEmerald+/+; APC8-mScarlet+/+ cells (metaphase by p-0009), measured in the cytoplasm; apparent
[3] = target: Anaphase Promoting Complex/Cyclosome (APC/C), endogenous, with APC8-mScarlet (human (endogenous in RPE-1)) (UniProt Q9UJX2); assay: fluorescence cross-correlation spectroscopy (FCCS); in living RPE-1 Cyclin B1-mEmerald+/+; APC8-mScarlet+/+ cells (metaphase by p-0009), measured at the spindle fibres; apparent
[4] = target: Anaphase Promoting Complex/Cyclosome (APC/C), endogenous, with APC8-mScarlet (human (endogenous in RPE-1)) (UniProt Q9UJX2); assay: fluorescence cross-correlation spectroscopy (FCCS); in living RPE-1 Cyclin B1-mEmerald+/+; APC8-mScarlet+/+ cells (metaphase by p-0009), measured at the spindle poles; apparent
[5] = target: Anaphase Promoting Complex/Cyclosome (APC/C) with APC8-mScarlet, endogenous (human (endogenous in RPE-1)) (UniProt Q9UJX2); assay: fluorescence cross-correlation spectroscopy (FCCS); living RPE-1 Cyclin B1-mEmerald+/+; APC8-mScarlet+/+ cells in metaphase (untreated; similar with MG132), measured in the cytoplasm; in vivo KD
[6] = target: Anaphase Promoting Complex/Cyclosome (APC/C) with APC8-mScarlet, endogenous (human (endogenous in RPE-1)) (UniProt Q9UJX2); assay: fluorescence cross-correlation spectroscopy (FCCS); living RPE-1 Cyclin B1-mEmerald+/+; APC8-mScarlet+/+ cells in metaphase (untreated; similar with MG132), measured at the chromatin (chromosomes); in vivo KD
[7] = target: Nucleosome Core Particle NCP147, P04908;P68431;P62805; assay: EMSA; settings: 2 µM Cyclin B1; parent: est. 18; read off a plot

Kd [1]: 83 nM
Kd [2]: 176 nM
Kd [3]: 71 nM
Kd [4]: 81 nM
Substance: Cyclin B1-mEmerald (endogenous) (from UniProt P14635 1-433) (natural protein)

Kd [5]: 180 nM
Kd [6]: 80 nM
Substance: Cyclin B1-mEmerald (endogenous, both alleles tagged) (from UniProt P14635 1-433) (natural protein)

other: Unbound NCP147 (%) [7]: 85%
Substance: Cyclin B1^WT-StrepII, full length (from UniProt P14635) L3A; R4A; V5A; T6A; R7A

other: Unbound NCP147 (%) [7]: 54%
Substance: Cyclin B1^WT-StrepII, full length (from UniProt P14635) R4E; R7E

From publication PMC11445581
